Reference: patent publication US20210238304A1
Several values for one entry are separate records, joined by “and”; a condition that tells them apart may be missing. Equal values may be shown once. Blank lines part the entries; values can stand above or below the binder they belong to.

Key:
[1] = target: human mesothelin (recombinant, soluble) (human) (UniProt Q13421); test: SPR BIAcore, parental mAb captured, mesothelin analyte
[2] = target: human mesothelin (recombinant, soluble) (human) (UniProt Q13421); test: SPR BIAcore, captured mAb, mesothelin analyte

Chain of human mesothelin (recombinant, soluble) (human) (Q13421 other isoform, or with tags, fused parts or gaps limits assumed): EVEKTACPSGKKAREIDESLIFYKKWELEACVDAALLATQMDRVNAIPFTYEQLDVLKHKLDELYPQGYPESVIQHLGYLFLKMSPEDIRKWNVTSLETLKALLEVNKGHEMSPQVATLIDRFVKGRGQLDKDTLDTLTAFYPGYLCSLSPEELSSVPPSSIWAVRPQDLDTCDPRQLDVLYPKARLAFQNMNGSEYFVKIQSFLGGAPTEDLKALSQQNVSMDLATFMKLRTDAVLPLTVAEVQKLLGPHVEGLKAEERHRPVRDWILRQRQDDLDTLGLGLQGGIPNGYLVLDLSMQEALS

B1: 111B10 (rabbit-human chimeric anti-human mesothelin antibody) (antibody, from another filing, V domains shown)
VH: QSVEESGGRLVTPGTPLTLTCTVSGFSLNNYAMSWVRQAPGKGLEWIGSISTGGLAFYANWAKGRFTISRTSTTVDLKMTSLTTEDTATYFCGRNGGGSYIFYYFDLWGQGTLVTVSS
VL: AFELTQTPSSVEAAVGGTITIKCQASQSISSYLSWYQQKPGQPPKLLIYSASTLASGVSSRFKGSGSGTEYTLTISDLECADAATYFCQSYYDIGTSTFGGGTEVVVKR
Kd [1]: 6.3 nM
koff [1]: 0.0039 s⁻¹
kon [1]: 650000 M⁻¹ s⁻¹

B2: 346C6 (rabbit-human chimeric anti-human mesothelin antibody) (antibody, from another filing, V domains shown)
VH: QSVEESGGRLVKPDESLTLTCTASGFSLSSYAMIWVRQAPGEGLEWIGTISTGGITYYASWAKGRFTISKTSTTVDLKITSPTTEDTATYFCARGGYAASSAYYLPYYFDLWGQGTLVTVSS
VL: AAVLTQTPSPVSAAVGGTVTISCQSSQSVYNNNNLAWFQQKPGQPPKLLIYLASTLASGVPSRFSGSGSGTQFTLTISGVQCDDAATYYCLGGCDDDADTFAFGGGTEVVVKR
Kd [2]: 0.706 nM and 0.529 nM
koff [2]: 0.000481 s⁻¹ and 0.000609 s⁻¹
kon [2]: 682000 M⁻¹ s⁻¹ and 1.15e+06 M⁻¹ s⁻¹
Kd [1]: 1.4 nM
koff [1]: 0.00049 s⁻¹
kon [1]: 380000 M⁻¹ s⁻¹

More lines, now with the values ahead:

Kd [2]: 0.47 nM and 0.131 nM
koff [2]: 0.000129 s⁻¹ and 0.000345 s⁻¹
Kd [1]: 1.1 nM
koff [1]: 0.00026 s⁻¹
kon [1]: 240000 M⁻¹ s⁻¹
B3: 201C15 (rabbit-human chimeric anti-human mesothelin antibody) (antibody, from another filing, V domains shown)
VH: QSVKESGGRLVTPGTPLTLTCTVSGIDLSSYAMGWFRQAPGKGLEYIGTINIGGRVYYASWAKGRFTISRTSTTVDLKAPSLTAEDTATYFCARYYNGGSYDIWGPGTLVTVSL
VL: DVVMTQTPASASEPVGGTVTIKCQASESIYRVLAWYQQKPGQPPKLLIYDTSTLASGAPSRFKGSGYGTEFTLTISGVQCEDAATYYCQGGYYADSYGIAFGGGTEVVVKR

Kd [1]: 3.4 nM
koff [1]: 0.00065 s⁻¹
kon [1]: 220000 M⁻¹ s⁻¹
B4: 33O11 zu (humanized anti-human mesothelin antibody) (antibody, from another filing, V domains shown)
VH: EVQLVESGGGLVQPGGSLRLSCAASGISLSSDAISWVRQAPGKGLEYIGIINGGGNTYYASWAKGRFTISRHNSKNTLYLQMNSLRAEDTAVYYCARGIQHGGGNSDYYYYGMDLWGQGTLVTVSS
VL: DIQMTQSPSSLSASVGDRVTITCQASQSISSVLSWYQQKPGKAPKLLIYLASTLASGVPSRFSGSGSGTDFTLTISSLQCEDIATYYCQTNYGTSSSNYGFAFGGGTKVEIKR
